The record followed here is patent publication US20130252983A1 (CORNELL UNIVERSITY, published 2013).

This test concerns the target mTOR (mammalian target of rapamycin) (UniProt Q9JLN9 1-2549). As to the kind of experiment: co-immunoprecipitation of GAC proteins from Dbl-transformed cell lysates, Western blot with mTOR antibody. From the text: To test this, Dbl-transformed cells were transiently transfected with wild-type GAC, GACΔC and GAC (S103A), and then these proteins were isolated from cell lysates by immunoprecipitation.

B1: GAC (S103A), phospho-defective mutant of mouse glutaminase C (enzyme)
chain: HPWWGGGGRAKGPGAGGLSSSPSEILQELGKGGTPPQQQQQQQQQPGAAPPAAPGPKDSPGETDAFGNSEGKEMVAAGDNKIKQGLLPSLEDLLFYTIAEGQEKIPVHKFITALKSTGLRTSDPRLKECMDMLRLTLQTTSDGVMLDKDLFKKCVQSNIVLLTQAFRRKFVIPDFMSFTSHIDELYESAKKQSGGKVADYIPQLAKFSPDLWGVSVCTVDGQRHSIGDTKVPFCLQSCVKPLKYAIAVNDLGTEYVHRYVGKEPSGLRFNKLFLNEDDKPHNPMVNAGAIVVTSLIKQGVNNAEKFDYVMQFLNKMAGNEYVGFSNATFQSERESGDRNFAIGYYLKEKKCFPEGTDMVGILDFYFQLCSIEVTCESASVMAATLANGGFCPITGERVLSPEAVRNTLSLMHSCGMYDFSGQFAFHVGLPAKSGVAGGILLVVPNVMGMMCWSPPLDKMGNSVKGIHFCHDLVSLCNFHNYDNLRHFAKKLDPRREGGDQRHSFGPLDYESLQQELALKDTVWKKVSPESSDDTSTTVVYRMESLGERS
notes: Transiently expressed in Dbl-transformed NIH 3T3 cells and isolated by immunoprecipitation; not shown: V5 tag
Turning to B1, the binding result is given as “no binding”.
